According to patent EP4748858A1 (Nanjing Probio Biotech Co., Ltd., dated 2026):

T1: mouse CD7 (ACROBiosystems, CD7-M52H3) (mouse, UniProt P50283 24-150)
T1 construct: Bought recombinant protein; also called Mouse CD7 protein
T1 sequence (looked up): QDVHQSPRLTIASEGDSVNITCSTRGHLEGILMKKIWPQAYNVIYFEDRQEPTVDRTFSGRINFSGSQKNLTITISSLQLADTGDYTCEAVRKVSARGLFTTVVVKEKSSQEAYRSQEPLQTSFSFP

T2: recombinant protein of the human CD7 extracellular domain, CD7-His (human, UniProt P09564 26-180)
T2 construct: range 25-645; also called human CD7-His protein; recombinant human CD7; not shown: His protein tag
T2 sequence (looked up): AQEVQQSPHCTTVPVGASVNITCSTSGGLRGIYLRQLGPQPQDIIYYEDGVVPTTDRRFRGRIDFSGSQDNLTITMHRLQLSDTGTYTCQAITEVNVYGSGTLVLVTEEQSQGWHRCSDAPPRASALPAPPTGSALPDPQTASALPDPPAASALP


Experiments:
[1] = target: T1, mouse CD7 (ACROBiosystems, CD7-M52H3); test: indirect ELISA, plate coated with 1 µg/ml mouse CD7
[2] = target: T2, recombinant protein of the human CD7 …; test: indirect ELISA, plate coated with 1 µg/ml human CD7, anti-human IgG Fc-HRP
[3] = target: T2, recombinant protein of the human CD7 …; test: SPR Biacore T200, antibody captured via Fc, human CD7 as analyte
[4] = target: T3, monkey CD7 (Sino Biological, 90993-H08H) (monkey); test: indirect ELISA, plate coated with 1 µg/ml monkey CD7, anti-human IgG Fc-HRP
T3 construct: Bought recombinant protein; also called Monkey CD7 protein

Binder	binding result [1]	EC50 [2]	Kd [3]	koff [3]	kon [3]	EC50 [4]
AHP19487 (Fc fusion, Alpaca VHH expressed as fusion to human IgG1 Fc; not shown: human IgG1 Fc of expression vector pcDNA3.4-Fc (HuIgG1)) DVQLVESGGGLVQPGGSLRLSCAFPGSAFSFYFMGWYRQAPGKQRELVGDITPGGTANYADSVKGRFTISRDSAKNTVYLQMNSLKPEDTAVYYCNADRRVTIRPDGYWGQGTQVTVSS	no binding (tested: 8 µg/ml (about 100 nM))	0.173 nM	–	–	–	–
AHP19483 (Fc fusion, Alpaca VHH expressed as fusion to human IgG1 Fc; not shown: human IgG1 Fc of expression vector pcDNA3.4-Fc (HuIgG1)) AVQLVDSGGGLVQAGGSLTLSCAASGRTFSRYTMGWFRQAPGKERELVASISWSGGSTDYADSVKDRFTISRDNTKNTVYLQMNGLKPEDTAVYYCNTDRMPYRPVVGGILSWEPYWGQGTQVTVTP	no binding (tested: 8 µg/ml (about 100 nM))	0.231 nM	–	–	–	–
AHP19511 (Fc fusion, Alpaca VHH expressed as fusion to human IgG1 Fc; not shown: human IgG1 Fc of expression vector pcDNA3.4-Fc (HuIgG1)) AVQLVESGGGLVQPGGSLRLSCAASGFTFSNAVIGWYRQAPGKQRELVASITPGGRTTYPDSVKGRFIISRDNAKNTVYLEMNSLKLEDTAVYYCNDFRGLGGYWGQGTQVTVSS	no binding (tested: 8 µg/ml (about 100 nM))	0.166 nM	–	–	–	–
AHP19494 (Fc fusion, Alpaca VHH expressed as fusion to human IgG1 Fc; not shown: human IgG1 Fc of expression vector pcDNA3.4-Fc (HuIgG1)) QVKLEESGGGLVQAGGSLRLSCAAPGRTLSASIKAWFRQAPGKDREFAAAIRWSGDSTYYADSVKGRFTISRDNAKNTVDLQMNSLKPEDTAVYYCNAGGLLSNGYQPGSSWGQGTQVTVSS	no binding (tested: 8 µg/ml (about 100 nM))	1.47 nM	–	–	–	–
AHP19509 (Fc fusion, Alpaca VHH expressed as fusion to human IgG1 Fc; also called AHP19509-VHH; not shown: human IgG1 Fc of expression vector pcDNA3.4-Fc (HuIgG1)) QVKLEESGGGLVQAGGSLRLSCAASGGTFNRYTMGWFRQAPGKEREFVAAISWSGGSTDYADSVKGRFTISRDNTKNTVYLQMNSLKPEDAAVYYCDTDRMPYRPVAAGILSWEANWGQGTQVTVSS	no binding (tested: 8 µg/ml (about 100 nM))	0.209 nM	0.0765 nM	2.3e-05 s⁻¹	301000 M⁻¹ s⁻¹	–
AHP19485 (Fc fusion, Alpaca VHH expressed as fusion to human IgG1 Fc; also called AHP19485-VHH; not shown: human IgG1 Fc of expression vector pcDNA3.4-Fc (HuIgG1)) EVQLVESGGGLVQPGGSLRLSCASSERIFSIHAMGWYRQAPGKQRELVASITIGGSTHYADSVKGRFTISRDNAKNTVYLHMNSLKPEDTAVYYCNSMLLAGTVGGSWGQGTQVTVSS	no binding (tested: 8 µg/ml (about 100 nM))	0.168 nM	0.289 nM	7.73e-05 s⁻¹	268000 M⁻¹ s⁻¹	–
AHP19484 (Fc fusion, Alpaca VHH expressed as fusion to human IgG1 Fc; also called AHP19484-VHH; not shown: human IgG1 Fc of expression vector pcDNA3.4-Fc (HuIgG1)) QVKLEESGGGLVQPGGSLRLSCVASGSSFHFAFMGWYRQAPGKQRELVADISPGNSTNYADPVKGRFVISRDNAKNTVYLQMNSLKPEDTAVYFCRDLRSWGAWGRGTQVTVSS	no binding (tested: 8 µg/ml (about 100 nM))	0.278 nM	0.12 nM	6.03e-05 s⁻¹	502000 M⁻¹ s⁻¹	7.03 nM
